{"source": "paper PMC2746992", "assay_in_all_cases": "spectrophotometric, decrease in A260", "details_in_all_cases": "50 mM Tris-HCl, pH 7.5, 0.1 mM MnCl2, 25 °C", "key": {"[1]": {"substrate": "O=C(O)/C=C\\C=C/C(=O)O", "format": "biochemical, Pseudomonas putida"}, "[2]": {"substrate": "O=C(O)/C=C\\C=C/C(=O)O", "format": "biochemical, Mycolicibacterium smegmatis"}, "[3]": {"substrate": "O=C(O)/C=C\\C=C/C(=O)O", "format": "biochemical, Pseudomonas protegens"}}}
{"protein": "MLE-1 from Pseudomonas putida (Pseudomonas putida) (protein) TSVLIERIEAIIVHDLPTIRPPHKLAMHTMQTQTLVLIRVRCSDGVEGIGEATTIGGLAYGYESPEGIKANIDAHLAPALVGLPADNINAAMLKLDKLAKGNTFAKSGIESALLDAQGKRLGLPVSELLGGRVRDSLEVAWTLASGDTARDIAEAQHMLEIRRHRVFKLKIGANPLAQDLKHVVAIKRELGDSASVRVDVNQYWDESQAIRACQVLGDNGIDLIEQPISRINRSGQVRLNQRSPAPIMADESIESVEDAFSLAADGAASIFALKIAKNGGPRAVLRTAQIAEAAGIALYGGTMLEGSIGTLASAHAFLTLRQLTWGTELFGPLLLTEEIVNEPPQYRDFQLHIPRTPGLGLTLDEQRLARFARR", "values": [{"measurement": "Km", "setting": "[1]", "value": "(5.4 ± 0.5) × 10^-4 M"}, {"measurement": "kcat", "setting": "[1]", "value": "11 ± 0.5", "unit": "s⁻¹"}, {"measurement": "kcat/Km", "setting": "[1]", "value": 20000, "unit": "M⁻¹ s⁻¹"}]}
{"protein": "MLE-2 from Mycobacterium smegmatis (MLE-MS, anti-MLE) (Mycolicibacterium smegmatis MC2 155) (protein) MKIVAIGAIPFSIPYTKPLRFASGEVHAAEHVLVRVHTDDGIVGVAEAPPRPFTYGETQTGIVAVIEQYFAPALIGLTLTEREVAHTRMARTVGNPTAKAAIDMAMWDALGQSLRLSVSEMLGGYTDRMRVSHMLGFDDPVKMVAEAERIRETYGINTFKVKVGRRPVQLDTAVVRALRERFGDAIELYVDGNRGWSAAESLRAMREMADLDLLFAEELCPADDVLSRRRLVGQLDMPFIADESVPTPADVTREVLGGSATAISIKTARTGFTGSTRVHHLAEGLGLDMVMGNQIDGQIGTACTVSFGTAFERTSRHAGELSNFLDMSDDLLTVPLQISDGQLHRRPGPGLGIEIDPDKLAHYRTDN", "values": [{"measurement": "Km", "setting": "[2]", "value": "(5.6 ± 1) × 10^-4 M"}, {"measurement": "kcat", "setting": "[2]", "value": "78 ± 6", "unit": "s⁻¹"}, {"measurement": "kcat/Km", "setting": "[2]", "value": 140000, "unit": "M⁻¹ s⁻¹"}]}
{"protein": "MLE-1 from Pseudomonas fluorescens (MLE-PF, syn-MLE) (Pseudomonas protegens Pf-5) (protein) MHASAIESIETIIVDLPTIRPHKLAMHTMQNQTLVLIRLRCADGIEGLGESTTIGGLAYGNESPDSIKTNIDRFVAPLLIGQDASNINAAMLRLEQSIRGNTFAKSGIESALLDAQGKRLGLPVSELLGGRVRDALPVAWTLASGDTAKDIAEAQKMLDLRRHRIFKLKIGAGEVDRDLAHVIAIKKALGDSASVRVDVNQAWDEAVALRACRILGGNGIDLIEQPISRNNRAGMVRLNASSPAPIMADESIECVEDAFNLAREGAASVFALKIAKNGGPRATLRTAAIAEAAGIGLYGGTMLEGGIGTLASAHAFLTLNKLSWDTELFGPLLLTEDILAEPPVYRDFHLHVSKAPGLGLSLDEERLAFFRRD", "values": [{"measurement": "Km", "setting": "[3]", "value": "(1.6 ± 0.2) × 10^-5 M"}, {"measurement": "kcat", "setting": "[3]", "value": "110 ± 2", "unit": "s⁻¹"}, {"measurement": "kcat/Km", "setting": "[3]", "value": "7e+06", "unit": "M⁻¹ s⁻¹"}]}
